# According to US20070167369A1, “Novel use of isolated polypeptide comprising four FAS-1 domains, EM1 domain and RGD motif” (KYUNGPOOK NATIONAL UNIVERSITY INDUSTRY-ACADEMIC COOPERATION …, priority 2004, published 2007):
# B1: fas-1 domain: recombinant protein containing the fourth fas-1 domain of human βig-h3 (SEQ ID NO: 64) (protein, listed as Homo sapiens)
# chain: MGTVMDVLKGDNRFSMLVAAIQSAGLTETLNREGVYTVFAPTNEAFRALPPRERSRLLGDAKELANILKYHIGDEILVSGGIGALVRLKSLQGDKLEVSLKNNVVSVNKEPVAEPDIMATNGVVHVITNVL
# Experiments:
# [1] = system: β5/HEK293 cells; assay: Apoptosis by annexin V staining, β5/HEK293 cells expressing αvβ5 integrin (Example 8); type: cell-based; conditions: annexin V FACS
# Protocol: To identify an integrin that mediates the induction of endothelial cell apoptosis by the fas-1 domain, the present inventors performed a test using HEK293 cells (β3/HEK293 and β5/HEK293) which had been transfected such as to express αvβ3 integrin or αvβ5 integrin.
# Meanwhile, a β5/HEK293 cell that expresses αvβ5 integrin was prepared in the following manner. In order to construct a human β5 integrin expression vector, RT-PCR using human placenta poly(A)^+ RNA as a template was first performed to prepare a 2.8-kb β5 cDNA (Suzuki et al., Proc. Natl. Acad. Sci. USA, 87:5354-5358, 1990). The amplified β5 cDNA was digested with EcoRI, and then cloned into a pcDNA3 vector (Invitrogen). The resulting vector was named “β5/pcDNA3”. Thereafter, 1 μg of the β5/pcDNA3 vector was introduced into HEK293 cells (ATCC, catalog No. CRL 1573) by lipofectamin (Gibco). A stable transfected cell was screened using 1 mg/ml of G418. The cell transfected with the β5/pcDNA3 vector was named “β5/HEK293”.
# pc/HEK293 cells, β3/HEK293 cells and β5/HEK293 cells were stained with annexin V to identify an integrin that mediates the induction of endothelial cell apoptosis by the fas-1 domain. Each of the cells was suspended in medium at a density of 5×10^5 cells/ml, added to each well of 6-well plated and incubated at 37° C. overnight. Following this, a test was performed in the same manner as in Example 7-1 above.
# [2] = system: HUVECs; assay: Migration of endothelial cells toward fibronectin, vitronectin or collagen (Example 5-2); type: cell-based, human
# Protocol: The undersurface of a transwell plate was coated with each of fibronectin, vitronectin and collagen, and then, a test was performed in the same manner as in Example 4-2 above.
# [3] = system: HUVECs; assay: Endothelial cell proliferation, MTT (Example 6); type: cell-based, human; conditions: 48 hours
# Protocol: HUVECs were suspended in medium at a density of 3×10^4 cells/ml, and 0.1 ml of the cell suspension was added to each well of 96-well plate and incubated at 37° C. overnight. The cells were washed with PBS buffer, and then incubated at 37° C. for 24 hours in serum-free medium. Thereafter, 0.2% FBS-containing medium containing the indicated concentrations of the fas-1 domain (βig-h3 D-IV) prepared in Example 1 was added to each well of the plate and incubated at 37° C. for 48 hours. A control was added with 2% BSA instead of the fas-1 domain. 50 μl of 0.5 mg/ml thiazolyl blue (MTT; Sigma) solution was added to each well, and allowed to react at 37° C. for 4 hours. After the reaction, the medium was removed, and each well was added with DMSO and left to stand at room temperature for a few minutes. Thereafter, the absorbance was measured at 570 nm in a Bio-Rad model 550 microplate reader.
# [4] = system: blood vessels in Matrigel plugs; assay: In vivo Matrigel plug assay (Example 9-2); parameters: species or system C57/BL6 mice
# Protocol: An in vivo Matrigel plug assay was performed according to the method described by Maeshima, Y. et al., J. Biol. Chem., 275:23745-23750, 2000. 5-6 week old male C57/BL6 mice purchased from Hyochang scientific company, Korea, were used.
# First, Matrigel (BD Biosciences, MA) was mixed with 20 units/ml heparin, 150 ng/ml bFGF (basic fibroblast growth factor, R&D system, International, Inc), and 5 μM or 10 μM of the fas-1 domain (pig-h3 D-IV). As a control was treated with PBS. The Matrigel mixture was injected subcutaneously to the C57/BL6 mice. After 7 days, the mice were sacrificed, and the Matrigel plugs were removed and fixed in 4% paraformaldehyde. The Matrigel plugs were embedded in paraffin, sectioned and stained with H&E. Their sections were examined by light microscope, the number of blood vessels from 4-6 HPF (high power fields; x200) was counted and averaged. Each group consisted of 3 or 4 Matrigel plugs.
# [5] = system: HUVECs; assay: Transwell migration of endothelial cells toward βig-h3 (Example 4-2); type: cell-based, human
# Protocol: The present inventors tested whether the fas-1 domain has the activity to inhibit the migration of endothelial cells (Nam, J. O. et al., J. Biol. Chem., 278:25902-25909, 2003). Cell migration assay was performed in a transwell plate (8 μm pore size, Costar, Cambridge, Mass.). The undersurface of the membrane was coated with the recombinant βig-h3 His-1-b (10 μg/ml) protein prepared in Example 1, at 4° C., and then, blocked for 1 hour at room temperature with PBS buffer containing 2% BSA. Meanwhile, HUVECs were added with the fas-1 domain (βig-h3 D-IV) prepared in Example 1, and preincubated at 37° C. for 30 minutes. A control was added with 2% BSA. Then, the HUVECs preincubated with the fas-1 domain were suspended in medium at a density of 3×10^5 cells/ml, and 0.1 ml of the cell suspension was added to the upper compartment of the filter. The cells were allowed to migrate at 37° C. for 6-8 hours.
# Migration was terminated by removing the cells from the upper compartment of the filter with a cotton swab. The filters were fixed with 8% glutaraldehyde and stained with crystal violet. The extent of cell migration was determined by light microscope, and within each well, cell counting was done in nine randomly selected fields HPF (Microscopic high power fields, x200).
molecule,measurement,setting,value
B1,induction of apoptosis of β5/HEK293 cells,[1],not induced
same,inhibition of migration of HUVECs to collagen,[2]; transwell coated with collagen,partially inhibited
same,inhibition of migration of HUVECs toward fibronectin,[2]; transwell coated with fibronectin,completely inhibited
same,inhibition of migration of HUVECs toward vitronectin,[2]; transwell coated with vitronectin,completely inhibited
same,inhibition of proliferation of endothelial cells,[3],inhibited by fas-1 domain in a dose-dependent manner
same,in vivo angiogenesis inhibitory effect compared with YH motif-containing peptide fragment of 18 amino acids,[4]; 5 μM fas-1 domain vs 500 μM YH peptide,significantly higher
same,number of blood vessels in Matrigel plug,"[4]; 5 μM in Matrigel, subcutaneous, 7 days",significantly smaller than that in the control
same,angiogenesis in Matrigel plug,"[4]; 10 μM in Matrigel, subcutaneous, 7 days",perfectly inhibited
same,inhibitory effect of endothelial cell migration compared with YH motif-containing peptide fragment of 18 amino acids,"[5]; 20 μM fas-1 domain vs 1,000 μM YH peptide",higher
same,inhibition of migration of endothelial cells promoted by βig-h3,[5]; transwell coated with βig-h3 His-1-b 10 μg/ml,inhibited by the fas-1 domain in a dose-dependent manner
